Experimental findings from US20210196834A1 are described below.

For orientation: Kd means a measure of binding affinity in units of concentration. Low values mean a tighter complex, high ones a looser complex. One may read the koff as the first-order rate constant of dissociation. A low value points to slow dissociation. Broadly, the kon is the second-order rate constant of association. Low readings indicate slow association, high ones fast association.

In the test the target is human SEZ6-His (soluble hSEZ6-his antigen) (human) (UniProt Q53EL9). Briefly: SPR, Biacore T200, human SEZ6-His captured on anti-His chip, Fab as analyte. For orientation: Surface plasmon resonance follows binding to a sensor surface in real time, without labels.
UniProt Q53EL9, sequence (Q53EL9 20-925): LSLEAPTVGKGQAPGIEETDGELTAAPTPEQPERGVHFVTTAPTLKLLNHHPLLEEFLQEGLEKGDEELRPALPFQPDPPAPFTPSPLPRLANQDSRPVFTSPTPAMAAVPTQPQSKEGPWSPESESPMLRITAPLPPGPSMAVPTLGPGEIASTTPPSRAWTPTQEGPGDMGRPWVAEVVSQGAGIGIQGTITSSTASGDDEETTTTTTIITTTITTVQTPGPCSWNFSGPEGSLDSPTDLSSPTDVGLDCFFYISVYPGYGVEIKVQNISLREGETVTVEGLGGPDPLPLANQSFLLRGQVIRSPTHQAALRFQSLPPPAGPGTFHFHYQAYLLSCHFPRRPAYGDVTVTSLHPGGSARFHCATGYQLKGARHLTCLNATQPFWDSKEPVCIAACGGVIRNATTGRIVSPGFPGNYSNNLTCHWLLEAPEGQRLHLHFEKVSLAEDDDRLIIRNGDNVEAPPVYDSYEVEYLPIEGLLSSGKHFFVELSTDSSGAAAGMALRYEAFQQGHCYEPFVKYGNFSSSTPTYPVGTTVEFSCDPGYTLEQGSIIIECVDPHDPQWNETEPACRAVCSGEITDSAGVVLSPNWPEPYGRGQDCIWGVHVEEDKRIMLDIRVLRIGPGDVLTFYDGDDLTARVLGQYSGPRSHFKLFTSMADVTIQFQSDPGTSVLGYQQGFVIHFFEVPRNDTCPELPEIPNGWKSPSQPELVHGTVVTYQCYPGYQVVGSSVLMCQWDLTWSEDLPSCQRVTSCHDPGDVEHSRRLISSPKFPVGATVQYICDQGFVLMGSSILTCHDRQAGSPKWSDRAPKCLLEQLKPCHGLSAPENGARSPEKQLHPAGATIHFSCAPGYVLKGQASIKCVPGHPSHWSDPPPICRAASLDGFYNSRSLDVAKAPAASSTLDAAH

B1: MutA (S60N) Fab (Fab construct of the hSEZ6-1.ss1 antibody with the S60N mutation) (Fab, V domains shown)
VH: EVQLVQSGAEVKKPGESLKISCKGSGYSFTSSWINWVRQMPGKGLEWMGRIYPGEGDTNYNGNFEGQVTISADKSISTAYLQWSSLKASDTAMYYCTRGLVMDYWGQGTLVTVSS
VL: EIVLTQSPATLSLSPGERATLSCRASQSVDYNGISYMHWYQQKPGQAPRLLIYAASNVQSGIPARFSGSGSGTDFTLTISSLEPEDFAVYYCQQSIEDPPTFGGGTKVEIK
Molecule B1 came in with a Kd of 4.8 nM, an off-rate constant (koff) of 0.006 s⁻¹ and an on-rate constant (kon) of 1.3e+06 M⁻¹ s⁻¹.
